According to patent US5882914, “Nucleic acids encoding the hypoxia inducible factor-1” (The Johns Hopkins University School of Medicine):

Tests used:
[1] = molecular target: T1, HIF-1 (HIF-1alpha/HIF-1beta ARNT heterodimer) (Homo sapiens, UniProt Q16665;P27540 Q16665:1-826,P27540:2-789); assay: EMSA; similar to W18; competed by W18 not M18; printed CADGTGCG in table; conditions: tags: none; 5' GATC overhang added
Source text: (§1) Double-stranded oligonucleotides were synthesized according to the sequences shown in Table 2 except that each oligonucleotide contained at its 5'-end the sequence 5'-GATC-3', which formed a single-stranded 5' overhang when complementary oligonucleotides were annealed. The sense strand sequence of the W18 and M18 oligonucleotides was as given above. HIF-1 was partially purified from 50 liters of CoCl_2-treated HeLa cells by crude nuclear extract preparation, DEAE-Sepharose chromatography, MonoQ fast protein liquid chromatography, and DNA affinity chromatography. Incubations with crude nuclear extracts and partially purified HIF-I contained 100 and 1 ng of denatured calf thymus DNA, respectively. Competition experiments were performed with 5 ng of unlabeled W18 or MI8 oligonucleotide.
(§2) EMSA was also performed with a preparation of HIF-1 from CoCl_2-treated HeLa cells that was purified approximately 600-fold by DEAE-cellulose, MonoQ, and DNA affinity chromatography. Each probe bound HIF-1 in a manner that was qualitatively and quantitatively similar to the complex formed with W18. The binding of HIF-1 to these probes was sequence-specific as it could be competed by an excess of unlabeled W18 but not by mutant oligonucleotide M18, containing a 3-nucleotide substitution previously shown to eliminate HIF-1 binding and hypoxia-inducible enhancer function. […]

[2] = molecular target: T1, HIF-1 (HIF-1alpha/HIF-1beta ARNT …); assay: EMSA; buffer Z-100; also UV cross-linking of both subunits, competed by W18 not M18; conditions: tags: none; 5' GATC overhang
Experimental: (§3) Figure 3A: FIG. 3A is an autoradiograph showing gel shift assay analysis of column fractions for HIF-1 DNA binding activity. Nuclear extracts were fractionated by DEAE-Sepharose chromatography, and fractions containing HIF-1 activity were applied to a W18 DNA affinity column. 5 ug of protein were incubated with 0.1 ug of calf thymus DNA for gel shift analysis of crude nuclear extract (Crude NE, lane 1) and HIF-1 active fractions from DEAE-Sepharose columns (DEAE, lane 2). For fractions from the W18 column (lanes 3–13), 1 ul aliquots were incubated with 5 ng of calf thymus DNA. The positions of the two HIF-1 bands, constitutive activity (C), nonspecific activity (NS), and free probe (F) are indicated. FT, flowthrough, 0.25M, 0.5M, 1M, and 2M are fractions eluted with indicated concentration of KCl in buffer Z. Figure 3B: FIG. 3B is an autoradiograph showing sequence-specific DNA binding of the partially purified fractions described in the legend to FIG. 3A. 5 ug aliquots of fractions from the DEAE-Sepharose column were incubated with W18 probe in the presence of no competitor (lane 1), 10-fold (lanes 2 and 5), 50-fold (lanes 3 and 6), or 250-fold (lanes 4 and 7) molar excess of unlabeled W18 (W, lanes 2–4) or M18 (M, lanes 5–7) oligonucleotide.
UV Cross-Linking Analysis. […]

[3] = molecular target: T1, HIF-1 (HIF-1alpha/HIF-1beta ARNT …); assay: EMSA; similar to W18; competed by W18 not M18; conditions: tags: none; 5' GATC overhang added
Experimental: as §1, with “The” for “Double-stranded oligonucleotides were synthesized according to the sequences shown in Table 2 except that each oligonucleotide contained at its 5'-end the sequence 5'-GATC-3', which formed a single-stranded 5' overhang when complementary oligonucleotides were annealed. The”
EMSA was also performed with a preparation of HIF-1 from CoCl_2-treated HeLa cells that was purified approximately 600-fold by DEAE-cellulose, MonoQ, and DNA affinity chromatography. Each probe bound HIF-1 in a manner that was qualitatively and quantitatively similar to the complex formed with W18. The binding of HIF-1 to these probes was sequence-specific as it could be competed by an excess of unlabeled W18 but not by mutant oligonucleotide M18, containing a 3-nucleotide substitution previously shown to eliminate HIF-1 binding and hypoxia-inducible enhancer function. Similar results were obtained when competition experiments involving W18 and M18 were performed with crude nuclear extract from hypoxic Hep3B cells. […] Given the biased method of ascertainment, it is possible that HIF-1 may recognize other sequences not represented by this consensus. In addition to the 6 HIF-1 sites from glycolytic genes, the sequence 5'-CACGTGCT-3' (SEQ ID NO:34) was also present in the hENO1 5'-FS at -786 to -793 (Gialongo et al. (1990) Eur. J. Biochem. 190:567–573) but was not tested for HIF-1 binding. Thus, a total of 7 probable HIF-1 sites were identified in 20.7 kb of nucleotide sequence reported to GenBank for these 5 glycolytic genes. In contrast, no sequences matching the consensus HIF-1 site were identified on either DNA strand within a total of 43.5 kb, comprising the nucleotide sequences of 5 randomly chosen genes, AFP, BUP4, CREB, DHFR, and EPOR (Gibbs et al. (1987) Biochemistry 26;1332–1343; Kurihara et al. (1993) Biochem.

[4] = molecular target: T1, HIF-1 (HIF-1alpha/HIF-1beta ARNT …); assay: competition; 250-fold excess M18 does not compete; HIF-1 in M18 column flowthrough; conditions: tags: none; 5' GATC overhang
Experimental: as §3

[5] = molecular target: T1, HIF-1 (HIF-1alpha/HIF-1beta ARNT …); assay: EMSA; listed among 8 oligonucleotides shown to bind HIF-1 specifically; conditions: tags: none; 5' GATC overhang added
Source text: as §1, §2

T1 sequence (Q16665 whole entry, chain 1 of 2): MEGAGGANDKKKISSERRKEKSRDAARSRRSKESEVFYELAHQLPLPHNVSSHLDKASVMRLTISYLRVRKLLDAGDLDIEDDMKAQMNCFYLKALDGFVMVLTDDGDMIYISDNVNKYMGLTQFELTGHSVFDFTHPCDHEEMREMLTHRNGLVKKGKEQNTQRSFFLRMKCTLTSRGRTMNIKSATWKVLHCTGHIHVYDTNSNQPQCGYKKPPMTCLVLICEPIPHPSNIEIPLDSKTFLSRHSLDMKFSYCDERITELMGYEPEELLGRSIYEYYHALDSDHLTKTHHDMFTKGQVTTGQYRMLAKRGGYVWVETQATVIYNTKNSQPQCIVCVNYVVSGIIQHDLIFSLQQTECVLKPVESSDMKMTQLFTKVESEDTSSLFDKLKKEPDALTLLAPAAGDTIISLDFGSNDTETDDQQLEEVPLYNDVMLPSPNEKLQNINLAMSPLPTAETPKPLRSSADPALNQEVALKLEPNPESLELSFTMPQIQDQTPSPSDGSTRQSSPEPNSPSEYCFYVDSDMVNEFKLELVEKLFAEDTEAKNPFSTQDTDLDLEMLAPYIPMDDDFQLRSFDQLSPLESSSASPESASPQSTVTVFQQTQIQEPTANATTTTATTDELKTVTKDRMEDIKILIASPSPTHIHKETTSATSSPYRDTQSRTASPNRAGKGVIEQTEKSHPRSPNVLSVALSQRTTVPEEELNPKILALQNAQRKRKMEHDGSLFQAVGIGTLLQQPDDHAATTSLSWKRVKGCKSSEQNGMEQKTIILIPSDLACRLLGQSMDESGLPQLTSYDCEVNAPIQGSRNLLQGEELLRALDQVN
T1 sequence (P27540 2-789, chain 2 of 2): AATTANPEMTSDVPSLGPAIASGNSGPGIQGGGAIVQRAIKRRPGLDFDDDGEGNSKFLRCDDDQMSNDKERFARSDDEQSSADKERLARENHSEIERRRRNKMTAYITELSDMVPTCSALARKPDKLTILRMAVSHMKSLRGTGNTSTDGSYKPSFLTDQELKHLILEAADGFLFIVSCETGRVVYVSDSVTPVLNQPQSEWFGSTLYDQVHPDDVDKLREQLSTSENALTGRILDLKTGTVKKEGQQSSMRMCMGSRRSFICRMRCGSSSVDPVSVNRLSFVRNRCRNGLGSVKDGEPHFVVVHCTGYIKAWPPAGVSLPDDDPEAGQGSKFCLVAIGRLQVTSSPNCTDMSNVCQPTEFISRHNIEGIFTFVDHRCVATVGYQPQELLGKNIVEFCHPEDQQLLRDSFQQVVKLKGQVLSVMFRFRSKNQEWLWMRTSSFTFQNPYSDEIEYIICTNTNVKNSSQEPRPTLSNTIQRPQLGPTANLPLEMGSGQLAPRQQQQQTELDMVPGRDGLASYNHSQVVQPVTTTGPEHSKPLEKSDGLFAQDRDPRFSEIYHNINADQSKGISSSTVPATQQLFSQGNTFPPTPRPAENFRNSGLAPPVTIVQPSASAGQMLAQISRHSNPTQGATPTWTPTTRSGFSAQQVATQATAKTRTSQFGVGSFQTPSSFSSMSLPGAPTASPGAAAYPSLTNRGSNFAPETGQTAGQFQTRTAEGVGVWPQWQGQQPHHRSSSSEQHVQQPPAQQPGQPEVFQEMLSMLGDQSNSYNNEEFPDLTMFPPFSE

B1: hENO1 5'-FS (dsDNA)
DNA 1: GGCCACGTGCGCCGCCTGCGCCTGCG
DNA 2: CGCAGGCGCAGGCGGCGCACGTGGCC
binding result [1]: binds

B2: W18 (dsDNA)
DNA 1: GATCGCCCTACGTGCTGTCTCA
DNA 2: TGAGACAGCACGTAGGGCGATC
binding result [2]: binds

B3: hPGK1 5'-UT (dsDNA)
DNA 1: CTGCCGACGTGCGCTCCGGAG
DNA 2: CTCCGGAGCGCACGTCGGCAG
binding result [3]: binds

B4: mLDHA 5'-FS (dsDNA)
DNA 1: GTGGGAGCCCAGCGGACGTGCGGGAA
DNA 2: TTCCCGCACGTCCGCTGGGCTCCCAC
binding result [3]: binds

B5: M18 (dsDNA)
DNA 1: GATCGCCCTAAAAGCTGTCTCA
DNA 2: TGAGACAGCTTTTAGGGCGATC
binding result [4]: no binding

B6: hEPO 3'-FS (dsDNA)
DNA 1: GCCCTACGTGCTGTCTCACACAGCCTGTCTGA
DNA 2: TCAGACAGGCTGTGTGAGACAGCACGTAGGGC
binding result [5]: binds

B7: hPGK1 5'-FS (dsDNA)
DNA 1: GTGAGACGTGCGGCTTCCGTTTG
DNA 2: CAAACGGAAGCCGCACGTCTCAC
binding result [3]: binds

B8: hALDA IVS-4 (dsDNA)
DNA 1: CTTCACGTGCGGGGACCAGGGACCGT
DNA 2: ACGGTCCCTGGTCCCCGCACGTGAAG
binding result [3]: binds

B9: mPFKL IVS-1 (dsDNA)
DNA 1: CCGGGTAGCTGGCGTACGTGCTGCAG
DNA 2: CTGCAGCACGTACGCCAGCTACCCGG
binding result [3]: binds

B10: hEPO 5'-FS (dsDNA)
DNA 1: GGGGCTGCTGCAGACGTGCGTGTG
DNA 2: CACACGCACGTCTGCAGCAGCCCC
binding result [3]: binds
